Measurements from article PMC12316734, “Lipase Activation by Poly(Methyl Methacrylate) in Dispersed Solution: Mechanistic Insights by Fluorescence Spectroscopy” (Applied Biochemistry and Biotechnology, 2025).

Target: the molecule itself
Test: fluorescence correlation spectroscopy; 15 nM Atto 488-labelled TLL plus non-labelled TLL to 500 nM, no PMMA, broad-range buffer (succinic acid/NaH2PO4/glycine), pH 7 and pH 5; mean diffusion constant compared with the value predicted for the monomer (Hullrad)

B1: Thermomyces lanuginosus lipase (enzyme, UniProt O59952 23-291, looked up)
chain: EVSQDLFNQFNLFAQYSAAAYCGKNNDAPAGTNITCTGNACPEVEKADATFLYSFEDSGVGDVTGFLALDNTNKLIVLSFRGSRSIENWIGNLNFDLKEINDICSGCRGHDGFTSSWRSVADTLRQKVEDAVREHPDYRVVFTGHSLGGALATVAGADLRGNGYDIDVFSYGAPRVGNRAFAEFLTVQTGGTLYRITHTNDIVPRLPPREFGYSHSSPEYWIKSGTLVPVTRNDIVKIEGIDATGGNNQPNIPDIPAHLWYFGLIGTCL
modifications: Atto 488 coupled unspecifically to amines via NHS-ester (15 nM labelled protein, non-labelled enzyme added to 500 nM)
notes: Thermomyces lanuginosus lipase (TLL), commercial enzyme preparation; The PDB entries were used only for computational surface analysis; also called TLL; Atto 488-TLL; source: gift from ASA Spezialenzyme GmbH (Wolfenbüttel, Germany), desalted (HiTrap Desalting) before use
stoichiometry N: 2
